Several values for one entry are separate records, joined by “and”; a condition that tells them apart may be missing. Equal entries are not always repeated.

Test [1] addresses T1, Msn5 (S. cerevisiae exportin), wild type (S. cerevisiae, UniProt P52918 1-1224).
T1 sequence: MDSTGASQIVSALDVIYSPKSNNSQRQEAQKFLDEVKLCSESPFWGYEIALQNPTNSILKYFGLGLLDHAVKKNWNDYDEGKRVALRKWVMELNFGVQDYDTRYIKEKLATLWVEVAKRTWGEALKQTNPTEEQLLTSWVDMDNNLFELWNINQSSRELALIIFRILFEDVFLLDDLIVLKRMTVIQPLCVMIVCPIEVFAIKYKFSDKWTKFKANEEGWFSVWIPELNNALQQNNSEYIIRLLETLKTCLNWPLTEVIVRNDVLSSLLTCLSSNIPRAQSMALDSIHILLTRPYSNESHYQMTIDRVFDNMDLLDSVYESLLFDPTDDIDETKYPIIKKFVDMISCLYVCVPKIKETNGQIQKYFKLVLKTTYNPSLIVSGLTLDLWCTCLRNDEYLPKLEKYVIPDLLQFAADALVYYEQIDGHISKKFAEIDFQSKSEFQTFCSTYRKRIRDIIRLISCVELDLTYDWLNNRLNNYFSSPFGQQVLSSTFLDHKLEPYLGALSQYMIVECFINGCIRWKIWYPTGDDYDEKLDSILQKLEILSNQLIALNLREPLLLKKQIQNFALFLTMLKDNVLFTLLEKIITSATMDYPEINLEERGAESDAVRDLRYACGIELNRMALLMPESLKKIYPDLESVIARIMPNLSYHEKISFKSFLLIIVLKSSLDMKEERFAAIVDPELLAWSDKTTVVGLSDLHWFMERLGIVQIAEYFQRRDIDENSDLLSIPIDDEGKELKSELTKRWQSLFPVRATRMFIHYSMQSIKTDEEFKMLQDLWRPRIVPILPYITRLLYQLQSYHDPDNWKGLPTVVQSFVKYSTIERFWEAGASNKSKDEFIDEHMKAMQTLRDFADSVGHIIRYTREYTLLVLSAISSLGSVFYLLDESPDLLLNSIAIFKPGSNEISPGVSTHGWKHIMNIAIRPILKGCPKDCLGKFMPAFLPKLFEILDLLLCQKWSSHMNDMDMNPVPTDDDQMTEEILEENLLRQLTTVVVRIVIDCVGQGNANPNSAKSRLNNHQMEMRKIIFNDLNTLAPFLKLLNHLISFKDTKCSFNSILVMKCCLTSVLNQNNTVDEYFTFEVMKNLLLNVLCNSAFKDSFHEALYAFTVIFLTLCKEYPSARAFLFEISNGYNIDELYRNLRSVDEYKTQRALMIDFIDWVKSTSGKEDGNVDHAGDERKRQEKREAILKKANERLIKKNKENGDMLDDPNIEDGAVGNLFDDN
Briefly: fluorescence polarisation.

Another test has as its target T2, Msn5 RRAA (R393A, R458A) (S. cerevisiae, UniProt P52918 1-1224, RRAA (R393) | RRAA (R458)).
T2 sequence: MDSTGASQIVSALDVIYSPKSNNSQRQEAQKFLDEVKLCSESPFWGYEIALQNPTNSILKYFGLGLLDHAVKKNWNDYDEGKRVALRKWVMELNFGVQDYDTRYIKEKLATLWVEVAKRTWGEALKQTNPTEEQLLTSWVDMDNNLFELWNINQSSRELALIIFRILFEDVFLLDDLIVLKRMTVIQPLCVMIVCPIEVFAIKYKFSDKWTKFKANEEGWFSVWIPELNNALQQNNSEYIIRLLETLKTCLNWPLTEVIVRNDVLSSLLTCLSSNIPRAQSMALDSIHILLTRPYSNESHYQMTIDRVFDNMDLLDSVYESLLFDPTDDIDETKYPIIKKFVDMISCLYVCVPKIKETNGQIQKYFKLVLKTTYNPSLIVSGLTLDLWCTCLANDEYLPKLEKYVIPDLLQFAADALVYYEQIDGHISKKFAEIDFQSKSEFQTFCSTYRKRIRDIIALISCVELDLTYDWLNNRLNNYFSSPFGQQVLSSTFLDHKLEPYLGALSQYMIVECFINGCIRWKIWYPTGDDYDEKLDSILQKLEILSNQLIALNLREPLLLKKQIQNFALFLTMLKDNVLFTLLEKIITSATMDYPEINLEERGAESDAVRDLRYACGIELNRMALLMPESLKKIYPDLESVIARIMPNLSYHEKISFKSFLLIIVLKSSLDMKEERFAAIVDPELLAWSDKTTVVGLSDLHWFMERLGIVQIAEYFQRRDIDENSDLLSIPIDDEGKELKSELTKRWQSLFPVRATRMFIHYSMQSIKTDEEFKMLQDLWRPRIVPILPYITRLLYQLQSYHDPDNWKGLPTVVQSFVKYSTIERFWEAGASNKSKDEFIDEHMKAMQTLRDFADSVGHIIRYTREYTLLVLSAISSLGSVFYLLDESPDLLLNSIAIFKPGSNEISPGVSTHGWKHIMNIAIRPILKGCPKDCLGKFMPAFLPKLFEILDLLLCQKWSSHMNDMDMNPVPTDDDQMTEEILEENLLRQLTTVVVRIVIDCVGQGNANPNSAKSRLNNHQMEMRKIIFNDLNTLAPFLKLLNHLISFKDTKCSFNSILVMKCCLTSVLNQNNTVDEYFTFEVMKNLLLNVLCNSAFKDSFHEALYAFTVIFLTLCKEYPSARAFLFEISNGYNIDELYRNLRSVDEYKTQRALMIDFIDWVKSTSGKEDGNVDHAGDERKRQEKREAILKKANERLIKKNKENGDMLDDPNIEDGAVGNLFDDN
Put plainly: fluorescence polarisation.

Test [2] concerns the target T1, Msn5 (S. cerevisiae exportin), wild type. Briefly: cryo-EM structure.

B1: mNeonGreen-pPho4_(3-200), wild type, phosphorylated (domain or fragment)
chain: RTTSEGIHGFVDDLEPKSSILDKVGDFITVNTKRHDGREDFNEQNDELNSQENHNSSENGNENENEQDSLALDDLDRAFELVEGMDMDWMMPSHAHHSPATTATIKPRLLYSPLIHTQSAVPVTISPNLVATATSTTSANKVTKNKSNSSPYLNKRRGKPGPDSATSLFELPDSVIPTPKPKPKPKQYPKVILPSNST
modifications: phosphorylated in vitro by Pho80-Pho85: pS100, pS114, pS128, pS152
For the molecule B1, the Kd in test [1] was 20 nM and 44 nM and 25 nM; with Msn5 RRAA (R393A, R458A), 2200 nM.

B2: pPho4_(1-200), phosphorylated, GST removed (domain or fragment)
chain: MGRTTSEGIHGFVDDLEPKSSILDKVGDFITVNTKRHDGREDFNEQNDELNSQENHNSSENGNENENEQDSLALDDLDRAFELVEGMDMDWMMPSHAHHSPATTATIKPRLLYSPLIHTQSAVPVTISPNLVATATSTTSANKVTKNKSNSSPYLNKRRGKPGPDSATSLFELPDSVIPTPKPKPKPKQYPKVILPSNST
modifications: phosphorylated in vitro by Pho80-Pho85: pS100, pS114, pS128, pS152 (pS114 and pS128 seen in the structure)
As to B2, the binding result in test [2] is listed as “binds”.

Values taken from publication PMC11910620 (Nature Communications, 2025).
